Measured values reported in publication PMC11331971 (Nature, 2023).

B1: TMPRSS2 (transmembrane-serine protease 2), wild type, on transfected 293T cells (receptor)
chain: MALNSGSPPAIGPYYENHGYQPENPYPAQPTVVPTVYEVHPAQYYPSPVPQYAPRVLTQASNPVVCTQPKSPSGTVCTSKTKKALCITLTLGTFLVGAALAAGLLWKFMGSKCSNSGIECDSSGTCINPSNWCDGVSHCPGGEDENRCVRLYGPNFILQVYSSQRKSWHPVCQDDWNENYGRAACRDMGYKNNFYSSQGIVDDSGSTSFMKLNTSAGNVDIYKKLYHSDACSSKAVVSLRCIACGVNLNSSRQSRIVGGESALPGAWPWQVSLHVQNVHVCGGSIITPEWIVTAAHCVEKPLNNPWHWTAFAGILRQSFMFYGAGYQVEKVISHPNYDSKTKNNDIALMKLQKPLTFNDLVKPVCLPNPGMMLQPEQLCWISGWGATEEKGKTSEVLNAAKVLLIETQRCNSRYVYDNLITPAMICAGFLQGNVDSCQGDSGGPLVTSKNNIWWLIGDTSWGSGCAKAYRPGVYGNVMVFTDWIYRQMRADG
B2: HKU1B receptor binding domain (residues 323-607) (domain or fragment)
chain: NLPDCDIDNWLNNVSVPSPLNWERRIFSNCNFNLSTLLRLVHVDSFSCNNLDKSKIFGSCFNSITVDKFAIPNRRRDDLQLGSSGFLQSSNYKIDISSSSCQLYYSLPLVNVTINNFNPSSWNRRYGFGSFNLSSYDVVYSDHCFSVNSDFCPCADPSVVNSCAKSKPPSAICPAGTKYRHCDLDTTLYVKNWCRCSCLPDPISTYSPNTCPQKKVVVGIGEHCPGLGINEEKCGTQLNHSSCFCSPDAFLGWSFDSCISNNRCNIFSNFIFNGINSGTTCSNDL
modifications: biotinylated with the BirA biotin-protein ligase kit for the BLI experiment with nanobodies only
B3: anti-TMPRSS2 nanobody VHH-A07 (VHH)
VHH: QVQLVESGGGLVQPGGSLRLSCTSSGSPLEHYDIIWFRQAPGREREGVSSITTSGGHTNYADSVKDRFTISRDNAKNVVYLQMNSLKPEDTAVYYCAGRVGGRRNWIVPLDGYDNAYWGQGTQVTVSS
B4: anti-TMPRSS2 nanobody VHH-D01 (VHH)
VHH: EVQLVESGGGLVQPGGPLRLSCASSGSTLEHYDIGWFRQVPGGLREGVSSITASGGRTNYADSVKGRFTISRDNGKNAVYLQMNSLKPEDTAVYYCAGKIGGRRNWVAPLDGFENAYWGQGTQVTVSS
B5: anti-TMPRSS2 nanobody VHH-C11 (VHH)
VHH: QVQLVESGGGLVQPGGSLRLSCAASGFTLDYYDIYWFRQAPGKEREGVSSITTSGGRTNYADSVKGRFTISRDNAKNTVYLQMNSLKPEDTAVYYCAAKVGGRRNWIAPLNGYENALWGKGTLVTVSS
B6: anti-TMPRSS2 nanobody VHH-A01 (VHH)
VHH: QVQLVESGGGLVQPGGSLRLSCVVSGFSLDYYAIGWFRQAPGKEREGVSCIGSSGDKTNYADSVKGRFTISRDNAKNTVYLQMNSLKPEDTAVYYCAAESALYSDCTEEQNPMLYDYWGQGTQVTVSS
B7: anti-TMPRSS2 nanobody VHH-F05 (VHH)
VHH: EVQLVESGGGLVQPGGSLRLSCAASGFTLDYYAIGWFRQAPGKEREGVSCISSSGDSIKYVDSVKGRFTISRDNAKNTVYLQMNSLKPEDTAVYQCAADALGSGCLTGNYDYWGQGTRVTVSS
B8: HKU1B receptor binding domain with the R517A mutation (domain or fragment)
chain: NLPDCDIDNWLNNVSVPSPLNWERRIFSNCNFNLSTLLRLVHVDSFSCNNLDKSKIFGSCFNSITVDKFAIPNRRRDDLQLGSSGFLQSSNYKIDISSSSCQLYYSLPLVNVTINNFNPSSWNRRYGFGSFNLSSYDVVYSDHCFSVNSDFCPCADPSVVNSCAKSKPPSAICPAGTKYRHCDLDTTLYVKNWCACSCLPDPISTYSPNTCPQKKVVVGIGEHCPGLGINEEKCGTQLNHSSCFCSPDAFLGWSFDSCISNNRCNIFSNFIFNGINSGTTCSNDL
B9: HKU1A receptor binding domain (residues 323-609) (domain or fragment)
chain: DLPDCDIDKWLNNFNVPSPLNWERKIFSNCNFNLSTLLRLVHTDSFSCNNFDESKIYGSCFKSIVLDKFAIPNSRRSDLQLGSSGFLQSSNYKIDTTSSSCQLYYSLPAINVTINNYNPSSWNRRYGFNNFNLSSHSVVYSRYCFSVNNTFCPCAKPSFASSCKSHKPPSASCPIGTNYRSCESTTVLDHTDWCRCSCLPDPITAYDPRSCSQKKSLVGVGEHCAGFGVDEEKCGVLDGSYNVSCLCSTDAFLGWSYDTCVSNNRCNIFSNFILNGINSGTTCSNDL

target: dimeric anti-TMPRSS2 VHH-A01-Fc (alpaca (Lama pacos)); test: flow cytometry on cells

B1: binds.

target: T1, S441A TMPRSS2 ectodomain, soluble (human, UniProt O15393 106-492, S441A); test: BLI

Binder B2 has a Kd of 131 nM.

target: S441A TMPRSS2 ectodomain, soluble (human, UniProt O15393, S441A); test: BLI
Sequence (O15393 106-492 S441A): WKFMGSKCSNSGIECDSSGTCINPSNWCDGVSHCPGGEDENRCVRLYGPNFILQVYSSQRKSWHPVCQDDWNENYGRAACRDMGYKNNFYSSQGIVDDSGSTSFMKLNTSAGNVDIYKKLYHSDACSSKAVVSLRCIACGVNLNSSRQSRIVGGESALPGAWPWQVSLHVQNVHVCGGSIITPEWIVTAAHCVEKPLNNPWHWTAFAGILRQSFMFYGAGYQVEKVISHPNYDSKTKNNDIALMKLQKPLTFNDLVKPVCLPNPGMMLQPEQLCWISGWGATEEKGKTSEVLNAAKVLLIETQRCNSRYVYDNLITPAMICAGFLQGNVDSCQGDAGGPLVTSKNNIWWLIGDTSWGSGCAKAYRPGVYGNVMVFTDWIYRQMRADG

Compared with B3, B4 is 2.2-fold lower in Kd: 13.3 nM for the first, 6 nM for the second. The second binds more tightly here.

Compared with B5, B6 is 42-fold lower in Kd: 32.5 nM for the first, 0.78 nM for the second. The second binds more tightly here.

B7 was tested, and the Kd was 2.6 nM.

Going from B3 to B4, the koff falls from 0.0011 s⁻¹ to 0.00048 s⁻¹ (2.3-fold).

Going from B5 to B6, the koff falls from 0.00023 s⁻¹ to 5.1e-05 s⁻¹ (4.5-fold).

Binder B7 has a koff of 0.00019 s⁻¹.

target: T1, S441A TMPRSS2 ectodomain, soluble; test: BLI; remark: another data set of the same source

First: B2
Second: B8
The Kd of the first is 2.7-fold lower: 137 ± 20.8 nM for the first, 376 ± 96.4 nM for the second.

In the case of B9, the Kd is reported as 334 ± 66.2 nM.
